Reference: publication PMC7867188, “Biosensor-Based Directed Evolution of Methanol Dehydrogenase from Lysinibacillus xylanilyticus” (International Journal of Molecular Sciences, 2021)

B1: Lxmdh (methanol dehydrogenase, Mdh, NAD-dependent) (Lysinibacillus xylanilyticus) (protein)
chain: MSDVLKQFVMPKTNLFGPGAIQEVGTRLNDLEVKKTLIVTDEGLHKLGLSEQIANIITAAGIDVAIFPKAEPNPTDQNIEDGIAVYHAENCDSIVSLGGGSAHDAAKGIGLIASNGGRIHDYEGVDKSQNPLVPLIAINTTAGTASEMTRFTIITDTARKVKMAIVDKHVTPLLSINDPELMIGLPPALTAATGLDALTHAIESFVSTNATPITDACAEKVLQLVPEYLPRAYANGADLEAREQMVYAQFLAGMAFNNASLGYVHAIAHQLGGFYNLPHGVCNAILLPHVCRFNLTARTERFARIAELLGENVEALSKRDAAEKAIVAIENLSRDLNIPSGFRELGAKDEDIEILAKNAMLDVCAATNPRKATLEEIKQIITNAMGPVAKKEESLEAVALS
notes: His-tagged (pET28a; cloning primers indicate N-terminal His/thrombin tag and native stop), expressed in E. coli, Ni-NTA purified; cloning primers encode N-terminus MSDVLK and C-terminus KAVALS
B2: Lxmdh (methanol dehydrogenase, Mdh, NAD-dependent) (Lysinibacillus xylanilyticus; K46E) (protein)
chain: MSDVLKQFVMPKTNLFGPGAIQEVGTRLNDLEVKKTLIVTDEGLHELGLSEQIANIITAAGIDVAIFPKAEPNPTDQNIEDGIAVYHAENCDSIVSLGGGSAHDAAKGIGLIASNGGRIHDYEGVDKSQNPLVPLIAINTTAGTASEMTRFTIITDTARKVKMAIVDKHVTPLLSINDPELMIGLPPALTAATGLDALTHAIESFVSTNATPITDACAEKVLQLVPEYLPRAYANGADLEAREQMVYAQFLAGMAFNNASLGYVHAIAHQLGGFYNLPHGVCNAILLPHVCRFNLTARTERFARIAELLGENVEALSKRDAAEKAIVAIENLSRDLNIPSGFRELGAKDEDIEILAKNAMLDVCAATNPRKATLEEIKQIITNAMGPVAKKEESLEAVALS
notes: as for B1
B3: Lxmdh (methanol dehydrogenase, Mdh, NAD-dependent) (Lysinibacillus xylanilyticus; E396V) (protein)
chain: MSDVLKQFVMPKTNLFGPGAIQEVGTRLNDLEVKKTLIVTDEGLHKLGLSEQIANIITAAGIDVAIFPKAEPNPTDQNIEDGIAVYHAENCDSIVSLGGGSAHDAAKGIGLIASNGGRIHDYEGVDKSQNPLVPLIAINTTAGTASEMTRFTIITDTARKVKMAIVDKHVTPLLSINDPELMIGLPPALTAATGLDALTHAIESFVSTNATPITDACAEKVLQLVPEYLPRAYANGADLEAREQMVYAQFLAGMAFNNASLGYVHAIAHQLGGFYNLPHGVCNAILLPHVCRFNLTARTERFARIAELLGENVEALSKRDAAEKAIVAIENLSRDLNIPSGFRELGAKDEDIEILAKNAMLDVCAATNPRKATLEEIKQIITNAMGPVAKKEESLVAVALS
notes: as for B1
B4: Lxmdh (methanol dehydrogenase, Mdh, NAD-dependent) (Lysinibacillus xylanilyticus; K318N) (protein)
chain: MSDVLKQFVMPKTNLFGPGAIQEVGTRLNDLEVKKTLIVTDEGLHKLGLSEQIANIITAAGIDVAIFPKAEPNPTDQNIEDGIAVYHAENCDSIVSLGGGSAHDAAKGIGLIASNGGRIHDYEGVDKSQNPLVPLIAINTTAGTASEMTRFTIITDTARKVKMAIVDKHVTPLLSINDPELMIGLPPALTAATGLDALTHAIESFVSTNATPITDACAEKVLQLVPEYLPRAYANGADLEAREQMVYAQFLAGMAFNNASLGYVHAIAHQLGGFYNLPHGVCNAILLPHVCRFNLTARTERFARIAELLGENVEALSNRDAAEKAIVAIENLSRDLNIPSGFRELGAKDEDIEILAKNAMLDVCAATNPRKATLEEIKQIITNAMGPVAKKEESLEAVALS
notes: as for B1
B5: Lxmdh (methanol dehydrogenase, Mdh, NAD-dependent) (Lysinibacillus xylanilyticus; E396V/K318N) (protein)
chain: MSDVLKQFVMPKTNLFGPGAIQEVGTRLNDLEVKKTLIVTDEGLHKLGLSEQIANIITAAGIDVAIFPKAEPNPTDQNIEDGIAVYHAENCDSIVSLGGGSAHDAAKGIGLIASNGGRIHDYEGVDKSQNPLVPLIAINTTAGTASEMTRFTIITDTARKVKMAIVDKHVTPLLSINDPELMIGLPPALTAATGLDALTHAIESFVSTNATPITDACAEKVLQLVPEYLPRAYANGADLEAREQMVYAQFLAGMAFNNASLGYVHAIAHQLGGFYNLPHGVCNAILLPHVCRFNLTARTERFARIAELLGENVEALSNRDAAEKAIVAIENLSRDLNIPSGFRELGAKDEDIEILAKNAMLDVCAATNPRKATLEEIKQIITNAMGPVAKKEESLVAVALS
notes: as for B1

substrate: CO; experiment: HPLC of formaldehyde after O-benzylhydroxylamine derivatization; Michaelis-Menten nonlinear fit; format: biochemical, Lysinibacillus xylanilyticus; conditions: 3 mM NAD+, 5 mM Mg2+, 50 mM CHES pH 9.5, 55 °C, 10 min, 0-5 mM methanol
Source text: HPLC of formaldehyde after O-benzylhydroxylamine derivatization; Michaelis-Menten nonlinear fit on Lxmdh (methanol dehydrogenase, Mdh, NAD-dependent)

Going from B1 to B2, the Km falls from 1311 ± 406 µM to 372 ± 231 µM (3.5-fold).

B3 and B4 are within error of each other in Km: 10 ± 3 µM for the first, 46 ± 72 µM for the second.

Work on B5 yielded a Km of 233 ± 107 µM.

B1 and B2 are within error of each other in kcat: 0.0333 ± 0.00333 s⁻¹ for the first, 0.0283 ± 0.00333 s⁻¹ for the second.

B3 and B4 are within 1.5-fold of each other in kcat: 0.02 ± 0.00167 s⁻¹ for the first, 0.0267 ± 0.005 s⁻¹ for the second.

In the case of B5, the kcat is reported as 0.0217 ± 0.00167 s⁻¹.
